Measured values: patent US20240174727A1, “LONG-ACTING NATRIURETIC PEPTIDES AND USES THEREOF” (Eli Lilly and Company, priority 2022, published 2024)
Numbering of substitutions follows the chain as printed. Numbered stars: 1 amine (or outer) side, 2 acyl side, 3 side chain; on linkers, the order of the positions; unused ones are H or OH. Bridge positions count the residues as written; N and C are the ends. Square brackets hold non-standard residues; d marks the D form. * marks the point of attachment. C20 diacid = O=C(O)CCCCCCCCCCCCCCCCCCC(=O)*; γGlu = O=C(O)[C@H](CCC(=O)[*:2])N[*:1]; 4Pal = N[C@@H](Cc1ccncc1)C(=O)O

B1: Example 24 (peptide)
peptide: {C20 diacid}-[γGlu]EKEKEKGS[4Pal]RRSSCFGGRIDRIGHQSGLGCPSFR[4Pal]-NH2
modifications: disulfide 15-31
SMILES: CC[C@H](C)[C@@H]1NC(=O)[C@H](CCCNC(=N)N)NC(=O)[C@H](CC(=O)O)NC(=O)[C@H]([C@@H](C)CC)NC(=O)[C@H](CCCNC(=N)N)NC(=O)CNC(=O)CNC(=O)[C@H](Cc2ccccc2)NC(=O)[C@@H](NC(=O)[C@H](CO)NC(=O)[C@H](CO)NC(=O)[C@H](CCCNC(=N)N)NC(=O)[C@H](CCCNC(=N)N)NC(=O)[C@H](Cc2ccncc2)NC(=O)[C@H](CO)NC(=O)CNC(=O)[C@H](CCCCN)NC(=O)[C@H](CCC(=O)O)NC(=O)[C@H](CCCCN)NC(=O)[C@H](CCC(=O)O)NC(=O)[C@H](CCCCN)NC(=O)[C@H](CCC(=O)O)NC(=O)CC[C@H](NC(=O)CCCCCCCCCCCCCCCCCCC(=O)O)C(=O)O)CSSC[C@@H](C(=O)N2CCC[C@H]2C(=O)N[C@@H](CO)C(=O)N[C@@H](Cc2ccccc2)C(=O)N[C@@H](CCCNC(=N)N)C(=O)N[C@@H](Cc2ccncc2)C(N)=O)NC(=O)CNC(=O)[C@H](CC(C)C)NC(=O)CNC(=O)[C@H](CO)NC(=O)[C@H](CCC(N)=O)NC(=O)[C@H](Cc2c[nH]cn2)NC(=O)CNC1=O
B2: Example 22 (peptide)
peptide: {C20 diacid}-[γGlu]EKEKEKGS[4Pal]RRSSCFGGRIDRIGAQSGLGCPSFRH-NH2
modifications: disulfide 15-31
SMILES: CC[C@H](C)[C@@H]1NC(=O)[C@H](CCCNC(=N)N)NC(=O)[C@H](CC(=O)O)NC(=O)[C@H]([C@@H](C)CC)NC(=O)[C@H](CCCNC(=N)N)NC(=O)CNC(=O)CNC(=O)[C@H](Cc2ccccc2)NC(=O)[C@@H](NC(=O)[C@H](CO)NC(=O)[C@H](CO)NC(=O)[C@H](CCCNC(=N)N)NC(=O)[C@H](CCCNC(=N)N)NC(=O)[C@H](Cc2ccncc2)NC(=O)[C@H](CO)NC(=O)CNC(=O)[C@H](CCCCN)NC(=O)[C@H](CCC(=O)O)NC(=O)[C@H](CCCCN)NC(=O)[C@H](CCC(=O)O)NC(=O)[C@H](CCCCN)NC(=O)[C@H](CCC(=O)O)NC(=O)CC[C@H](NC(=O)CCCCCCCCCCCCCCCCCCC(=O)O)C(=O)O)CSSC[C@@H](C(=O)N2CCC[C@H]2C(=O)N[C@@H](CO)C(=O)N[C@@H](Cc2ccccc2)C(=O)N[C@@H](CCCNC(=N)N)C(=O)N[C@@H](Cc2c[nH]cn2)C(N)=O)NC(=O)CNC(=O)[C@H](CC(C)C)NC(=O)CNC(=O)[C@H](CO)NC(=O)[C@H](CCC(N)=O)NC(=O)[C@H](C)NC(=O)CNC1=O
B3: Example 5 (peptide)
peptide: XEKEKEKGEKPRSSCFGKRIDRIGHYSGLGCPSFRHGSPSSGAPPPS
modifications: HOOC-(CH2)18-CO-(γGlu)-EKEKEKGEKPRSS[CFGKRIDRIGHYSGLGC]PSFRHGSPSSGAPPPS-NH2; thioacetal linkage between the bracketed Cys
B4: Example 30 (peptide)
peptide: XEKEKEKGSXKRSSCFGGKIDRIGHQSGLGCPSFRHGGPSSGAPPPS
modifications: HOOC-(CH2)18-CO-(γGlu)-EKEKEKGS-4Pal-KRSS[CFGGKIDRIGHQSGLGC]PSFRHGGPSSGAPPPS-NH2; disulfide linkage between the bracketed Cys
B5: Example 31 (peptide)
peptide: B4 peptide with H25X
modifications: HOOC-(CH2)18-CO-(γGlu)-EKEKEKGS-4Pal-KRSS[CFGGKIDRIG-Dap-QSGLGC]PSFRHGGPSSGAPPPS-NH2; disulfide linkage between the bracketed Cys
B6: Example 57 (peptide)
peptide: B3 peptide with K18G, S38G
modifications: HOOC-(CH2)18-CO-(γGlu)-EKEKEKGEKPRSS[CFGGRIDRIGHYSGLGC]PSFRHGGPSSGAPPPS-NH2; thioacetal linkage between the bracketed Cys

These binders were tested against T1, rat NPRA (rat, UniProt P18910 29-1057) (assay: cell-based or functional assay).
T1 sequence (looked up): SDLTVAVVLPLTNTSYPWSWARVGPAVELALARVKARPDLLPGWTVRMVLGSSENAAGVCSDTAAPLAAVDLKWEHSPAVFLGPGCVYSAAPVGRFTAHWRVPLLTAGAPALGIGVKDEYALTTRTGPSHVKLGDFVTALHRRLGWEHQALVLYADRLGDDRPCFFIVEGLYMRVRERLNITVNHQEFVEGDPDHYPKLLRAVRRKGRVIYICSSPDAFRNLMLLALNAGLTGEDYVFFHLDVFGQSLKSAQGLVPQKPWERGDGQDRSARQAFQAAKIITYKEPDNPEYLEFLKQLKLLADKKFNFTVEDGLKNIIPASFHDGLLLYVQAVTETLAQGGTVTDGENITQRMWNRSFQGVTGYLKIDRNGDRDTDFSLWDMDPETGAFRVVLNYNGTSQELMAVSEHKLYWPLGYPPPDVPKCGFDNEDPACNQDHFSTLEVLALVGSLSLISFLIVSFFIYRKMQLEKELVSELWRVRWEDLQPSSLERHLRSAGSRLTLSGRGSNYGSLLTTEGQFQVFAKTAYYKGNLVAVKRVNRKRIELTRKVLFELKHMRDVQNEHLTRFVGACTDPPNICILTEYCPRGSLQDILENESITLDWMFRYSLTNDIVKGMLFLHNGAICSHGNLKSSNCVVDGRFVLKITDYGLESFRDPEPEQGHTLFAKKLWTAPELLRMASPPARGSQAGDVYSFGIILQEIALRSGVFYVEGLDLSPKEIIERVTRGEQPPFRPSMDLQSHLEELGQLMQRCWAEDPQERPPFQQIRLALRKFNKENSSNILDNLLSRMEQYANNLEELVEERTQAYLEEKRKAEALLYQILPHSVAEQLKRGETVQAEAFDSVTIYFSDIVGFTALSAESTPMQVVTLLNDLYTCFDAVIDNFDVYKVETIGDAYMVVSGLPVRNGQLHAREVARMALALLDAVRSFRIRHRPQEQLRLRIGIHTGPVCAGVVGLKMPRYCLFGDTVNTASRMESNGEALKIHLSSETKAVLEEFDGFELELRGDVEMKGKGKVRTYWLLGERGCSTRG
In the case of {C20 diacid}-[γGlu]EKEKEKGS[4Pal]KRSSCFGGKIDRIGHQSGLGCPSFRHGPSSGAPPPS-NH2 (disulfide 15-31) [Example 33], the “cGMP Assay (EC50, pM) w/BSA” value is reported as 112000 pM and the “cGMP Assay (EC50, pM) w/Casein” value is reported as 383 pM.
For B1, the “cGMP Assay (EC50, pM) w/BSA” value was 66100 pM and the “cGMP Assay (EC50, pM) w/Casein” value was 703 pM.
With {C20 diacid}-[γGlu]EKEKEKGS[4Pal]RRSSCFGGRIDRIGHQSGLGCPSFRHRITAREDKQGEA-NH2 (disulfide 15-31) [Example 26] the “cGMP Assay (EC50, pM) w/BSA” value was 119000 pM and the “cGMP Assay (EC50, pM) w/Casein” value was 803 pM.
B2 was tested, and the “cGMP Assay (EC50, pM) w/BSA” value was 192000 pM and the “cGMP Assay (EC50, pM) w/Casein” value was 1690 pM.
In the case of {C20 diacid}-[γGlu]EKEKEKGS[4Pal]RRSSCFGGRIGRIGHQSGLGCPSFRHGGPSSGAPPPS-NH2 (disulfide 15-31) [Example 29], the “cGMP Assay (EC50, pM) w/BSA” value is reported as 1.91e+06 pM and the “cGMP Assay (EC50, pM) w/Casein” value is reported as 16800 pM.
B3 was tested, and the “cGMP Assay (EC50, pM) w/BSA” value was 276000 pM and the “cGMP Assay (EC50, pM) w/Casein” value was 1130 pM.
{C20 diacid}-[γGlu]EKEKEKGS[4Pal]RRSSCFGGRIDRIGHQSGLGCPSFRHRITAREDKQGYA-NH2 (disulfide 15-31) [Example 25] was tested, and the “cGMP Assay (EC50, pM) w/BSA” value was 57300 pM and the “cGMP Assay (EC50, pM) w/Casein” value was 654 pM.
B4 was tested, and the “cGMP Assay (EC50, pM) w/Casein” value was 1130 pM.
For B5, the “cGMP Assay (EC50, pM) w/Casein” value was 12200 pM.
B6 was tested, and the “cGMP Assay (EC50, pM) w/Casein” value was 9500 pM.

These binders were tested against T2, human NPRA (human, UniProt P16066 33-1061) (assay: cell-based or functional assay).
T2 sequence (looked up): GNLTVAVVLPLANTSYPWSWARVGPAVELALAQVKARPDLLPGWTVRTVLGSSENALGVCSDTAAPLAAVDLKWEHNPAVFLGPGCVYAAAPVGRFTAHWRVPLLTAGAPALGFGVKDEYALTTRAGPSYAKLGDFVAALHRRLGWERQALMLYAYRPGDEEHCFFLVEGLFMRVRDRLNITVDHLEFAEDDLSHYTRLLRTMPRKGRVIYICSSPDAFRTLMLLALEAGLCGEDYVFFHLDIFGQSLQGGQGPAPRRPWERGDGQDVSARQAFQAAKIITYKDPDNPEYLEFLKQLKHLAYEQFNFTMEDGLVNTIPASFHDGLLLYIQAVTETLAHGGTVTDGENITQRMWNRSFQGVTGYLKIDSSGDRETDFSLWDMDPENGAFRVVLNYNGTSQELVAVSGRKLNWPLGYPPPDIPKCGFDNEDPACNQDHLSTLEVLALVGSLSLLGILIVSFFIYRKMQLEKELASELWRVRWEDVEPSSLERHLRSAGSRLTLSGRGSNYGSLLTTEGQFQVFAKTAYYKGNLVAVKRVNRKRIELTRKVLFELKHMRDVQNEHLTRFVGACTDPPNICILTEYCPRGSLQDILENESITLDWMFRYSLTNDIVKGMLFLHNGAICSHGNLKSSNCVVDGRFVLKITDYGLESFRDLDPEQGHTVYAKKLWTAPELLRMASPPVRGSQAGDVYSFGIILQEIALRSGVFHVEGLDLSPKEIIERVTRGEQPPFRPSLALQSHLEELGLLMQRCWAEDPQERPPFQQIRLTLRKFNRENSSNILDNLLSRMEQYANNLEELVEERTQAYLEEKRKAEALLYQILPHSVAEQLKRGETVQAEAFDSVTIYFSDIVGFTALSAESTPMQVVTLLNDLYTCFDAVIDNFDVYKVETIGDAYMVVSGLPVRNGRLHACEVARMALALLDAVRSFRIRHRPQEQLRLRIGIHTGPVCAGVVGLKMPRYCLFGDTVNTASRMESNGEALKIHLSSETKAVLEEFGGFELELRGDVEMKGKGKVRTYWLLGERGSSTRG
In the case of {C20 diacid}-[γGlu]EKEKEKGS[4Pal]KRSSCFGGKIDRIGHQSGLGCPSFRHGPSSGAPPPS-NH2 (disulfide 15-31) [Example 33], the “cGMP Assay (EC50, pM) w/BSA” value is reported as 22200 pM and the “cGMP Assay (EC50, pM) w/Casein” value is reported as 199 pM.
In the case of B1, the “cGMP Assay (EC50, pM) w/BSA” value is reported as 21000 pM and the “cGMP Assay (EC50, pM) w/Casein” value is reported as 560 pM.
For {C20 diacid}-[γGlu]EKEKEKGS[4Pal]RRSSCFGGRIDRIGHQSGLGCPSFRHRITAREDKQGEA-NH2 (disulfide 15-31) [Example 26], the “cGMP Assay (EC50, pM) w/BSA” value was 17800 pM and the “cGMP Assay (EC50, pM) w/Casein” value was 682 pM.
With B2 the “cGMP Assay (EC50, pM) w/BSA” value was 25100 pM and the “cGMP Assay (EC50, pM) w/Casein” value was 840 pM.
For {C20 diacid}-[γGlu]EKEKEKGS[4Pal]RRSSCFGGRIGRIGHQSGLGCPSFRHGGPSSGAPPPS-NH2 (disulfide 15-31) [Example 29], the “cGMP Assay (EC50, pM) w/BSA” value was 32200 pM and the “cGMP Assay (EC50, pM) w/Casein” value was 482 pM.
In the case of {C20 diacid}-[γGlu]EKEKEKGS[4Pal]RRSSCFGGRIDRIGHQSGLGCPSFRHRITAREDKQGYA-NH2 (disulfide 15-31) [Example 25], the “cGMP Assay (EC50, pM) w/BSA” value is reported as 12000 pM and the “cGMP Assay (EC50, pM) w/Casein” value is reported as 436 pM.
